The assay has as its target T1, human B7H6 (human, UniProt Q68D85 25-454).
T1 construct: in the immunoblot and immunoprecipitation experiments it stood in cell lysates; residues 1-24 are not expressly called a signal peptide; also called P815.B7H6; P815.B7-H6
T1 sequence: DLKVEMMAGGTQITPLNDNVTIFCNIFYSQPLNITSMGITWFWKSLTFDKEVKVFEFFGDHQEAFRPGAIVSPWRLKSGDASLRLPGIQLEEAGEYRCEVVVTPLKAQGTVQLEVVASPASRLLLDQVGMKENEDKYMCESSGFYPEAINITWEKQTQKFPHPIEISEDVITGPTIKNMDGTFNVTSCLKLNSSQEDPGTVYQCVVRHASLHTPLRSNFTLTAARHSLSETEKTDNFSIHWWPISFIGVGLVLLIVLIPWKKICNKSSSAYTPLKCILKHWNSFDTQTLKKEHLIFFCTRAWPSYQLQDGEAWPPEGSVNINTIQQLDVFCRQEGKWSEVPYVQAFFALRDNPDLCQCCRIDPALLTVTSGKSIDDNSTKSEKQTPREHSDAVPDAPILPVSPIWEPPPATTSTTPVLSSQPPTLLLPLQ
The assay is described as follows: FACS on P815.B7-H6 cells.

B1: NKp30Fc, soluble form of human NKp30 consisting of the extracellular domain of human NKp30 with a C-terminal Fc fusion (Fc fusion, UniProt O14931 19-135, looked up)
chain: LWVSQPPEIRTLEGSSAFLPCSFNASQGRLAIGSVTWFRDEVVPGKEVRNGTPEFRGRLAPLASSRFLHDHQAELHIRDVRGHDASIYVCRVEVLGLGVGTGNGTRLVVEKEHPQLG
notes: extracellular domain; not shown: C-terminal Fc
On to B1, for which the binding result is “binds”.

Values taken from US20130004432A1 (INSTITUT NATIONAL DE LA SANTE ET DE LA RECHERCHE MEDICALE, published 2013).
